Reference: patent US8815803B2, “Method for increasing body height comprising systemic administration of CNP-53” (priority 2004, dated 2014)
“And” between values parts separate entries of the source, which are not always exact repeats. Identical values can stand only once. “Also recorded” adds a separate entry of the source.

Legend:
Format in all cases: in vivo
[1] = CNP expression in CNP transgenic mouse: CNP-22 EIA, blood plasma
Experimental: (§1) A CNP-22 EIA measuring kit (PHOENIX PHARMACEUTICALS INC.) was used for the determination of a CNP level.
(§2) Three each of 7-week old male and female CNP transgenic mice, as well as 3 each of male and female normal litter of mice, were euthanized by exsanguination from the postcava under ether anesthesia.
One mg of ethylenediaminetetraacetate-4Na (Junsei Chemical Co., Ltd., Japan) and 2 trypsin-inhibition units of aprotinin (Sigma) were added to the drawn blood and agitated to separate blood plasma, which was used as a sample for the determination of CNP-22 levels.

[2] = system: growth cartilage of femora; assay: Histological analysis of the growth cartilage of CNP transgenic mouse; settings: 9-week old female CNP transgenic mice, patellar surface femur
Source text: For the purpose of analyzing the thickness of the growth cartilage histologically, 5 each of 9-week old female CNP transgenic mice and female normal litter of mice were euthanized by exsanguination from the postcava under ether anesthesia, and the thigh bone was fixed in 20% formalin for a week. After soaking in a 20% aqueous solution of EDTA-4Na (pH 7.4) (Junsei Chemical Co., Ltd., Japan) for decalcification, the patellar surface femur was subjected to a midline sagittal section and embedded in paraffin by conventional method to prepare a paraffin block. A 4 μm-thick section was further sectioned with a microtome to prepare paraffin sections, which were stained with hematoxylin and eosin. For the thickness of the growth cartilage, one microscopic field observed using an objective lens (×10) was incorporated into an image analysis software (IPAP, Sumika Technoservice, Japan), and each thickness of the resting layer, proliferating layer and hypertrophic layer was measured at 5 points in the microscopic field using the same software, and the calculated mean value thereof was taken as the thickness of each layer of the individual. The total of the three layers was regarded as the thickness of the growth cartilage of the individual. […]

mice = assay: Growth curve of CNP transgenic mouse (naso-anal length)
Experimental: The naso-anal lengths (in cm) of female and male CNP transgenic mice, as well as those of female and male normal littermates, were measured on time over a period of 2 to 9 weeks (FIG. 4).

[3] = CNP expression in CNP transgenic mouse: CNP-22 EIA, liver
Experimental: as §1, §2
The liver was homogenized in a Waring blender (Physcotron), and after centrifugation (at 2,000 rpm for 5 minutes), the supernatant was used as a sample for the determination of CNP-22 levels.

[4] = 7-week old CNP transgenic mice, individual animal, CNP-22 EIA
[5] = CNP transgenic mouse vs wild type, means compared

## CNP: C-type natriuretic peptide, a GC-B activator, overexpressed from murine CNP cDNA transgene in mice; measured with CNP-22 EIA kit
[1]; [4]
  CNP level, Plasma: 11.1 ng/mL and 2.6 ng/mL and 10.3 ng/mL
[1]; 7-week old CNP transgenic mice, mean ± SD of No. 1-3
  CNP level, Plasma, mean ± SD: 8.0 ± 4.7 ng/mL
[1]; [5]
  CNP level in blood plasma, higher than the wild type: about 24 fold
[2]
  thickness of resting layer, proliferating layer, hypertrophic layer and total thickness of growth cartilage vs wild type: greater with statistical significance; also recorded: significantly greater
mice; female CNP transgenic mice, at 2 weeks old and thereafter
  naso-anal length vs normal litter (WT): significantly greater
mice; female and male CNP transgenic mice, over a period of 2 to 9 weeks
  naso-anal length vs normal littermates: greater than those of the normal littermates; also recorded: greater than those of the normal litter
mice; male CNP transgenic mice, at 4 weeks old and thereafter
  naso-anal length vs normal litter (WT): significantly greater
[3]; [4]
  CNP level, Liver: 370.0 ng/g tissue and 206.7 ng/g tissue and 293.3 ng/g tissue
[3]; 7-week old CNP transgenic mice, mean ± SD of No. 1-3, p < 0.01 vs wild type
  CNP level, Liver, mean ± SD: 290 ± 81.7 ng/g tissue
[3]; [5]
  CNP level in the liver, higher than the wild type: about 10 fold
